Broadly, the pKd is −log10 of the Kd, conventionally taken in molar units. Low readings indicate a large Kd, high ones a small Kd. The term koff denotes the rate constant with which the complex falls apart. One may read the kon as the second-order rate constant of association. Read a high kon as fast association.

pKd: −log10 of the molar value.

The test addresses EGFR-AP fusion protein (UniProt P00533). The test can be described thus: SPR (BIAcore), EGFR-AP immobilized, antibody 1.5 nM to 100 nM.

Chain of IMC-11F8 Fab (VH): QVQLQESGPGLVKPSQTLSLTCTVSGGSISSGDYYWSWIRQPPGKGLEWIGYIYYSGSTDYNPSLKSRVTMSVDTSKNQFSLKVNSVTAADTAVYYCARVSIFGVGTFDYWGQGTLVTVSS
Chain of IMC-11F8 Fab (VL): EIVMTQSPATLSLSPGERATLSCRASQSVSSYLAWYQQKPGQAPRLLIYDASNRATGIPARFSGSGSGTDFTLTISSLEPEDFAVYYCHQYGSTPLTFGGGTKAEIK

Turning to IMC-11F8 Fab, the pKd was 8.75, the koff came to 0.00367 s⁻¹ and the kon is 2.29e+06 M⁻¹ s⁻¹.

The values are drawn from patent US20140341888A1.
